Experimental data: article PMC3646915 (Journal of molecular biology, 2013)
Positions count from the first letter of the chain named. Read-outs that look alike come from different tables or passages of the source.

T1: porcine mitochondrial malate dehydrogenase (porcine, UniProt P00346 25-338)
T1 sequence (looked up): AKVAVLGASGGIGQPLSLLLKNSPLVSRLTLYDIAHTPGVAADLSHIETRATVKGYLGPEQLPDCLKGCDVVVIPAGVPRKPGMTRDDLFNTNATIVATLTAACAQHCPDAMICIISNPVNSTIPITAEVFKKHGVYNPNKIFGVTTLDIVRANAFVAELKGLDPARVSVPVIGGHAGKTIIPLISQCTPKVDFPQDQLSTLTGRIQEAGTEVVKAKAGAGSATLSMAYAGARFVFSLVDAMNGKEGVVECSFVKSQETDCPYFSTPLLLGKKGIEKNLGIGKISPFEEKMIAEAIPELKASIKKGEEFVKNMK

B1: AtHsp18.5 tryptic fragment 12–153 (domain or fragment, Arabidopsis thaliana, UniProt O64564 12-153, looked up)
chain: LSPGDRIWEPFELMNTFLDFPSPALFLSHHFPSLSREIFPQTSSSTVNTQLNWTETPTAHVFKAYLPGVDQDEVIAFVDEEGYLQICTGDNKFMSRFKLPNNALTDQVTAWMEDEFLVVFVEKDASSSPPQLPEIEENRNVR
B2: AtHsp18.5 tryptic fragment 11–153 (domain or fragment, Arabidopsis thaliana, UniProt O64564 11-153, looked up)
chain: RLSPGDRIWEPFELMNTFLDFPSPALFLSHHFPSLSREIFPQTSSSTVNTQLNWTETPTAHVFKAYLPGVDQDEVIAFVDEEGYLQICTGDNKFMSRFKLPNNALTDQVTAWMEDEFLVVFVEKDASSSPPQLPEIEENRNVR
B3: AtHsp18.5 truncation mutant 25–153 (domain or fragment, Arabidopsis thaliana, UniProt O64564 25-153, looked up)
chain: MNTFLDFPSPALFLSHHFPSLSREIFPQTSSSTVNTQLNWTETPTAHVFKAYLPGVDQDEVIAFVDEEGYLQICTGDNKFMSRFKLPNNALTDQVTAWMEDEFLVVFVEKDASSSPPQLPEIEENRNVR
B4: AtHsp18.5 tryptic fragment 11–150 (domain or fragment, Arabidopsis thaliana, UniProt O64564 11-150, looked up)
chain: RLSPGDRIWEPFELMNTFLDFPSPALFLSHHFPSLSREIFPQTSSSTVNTQLNWTETPTAHVFKAYLPGVDQDEVIAFVDEEGYLQICTGDNKFMSRFKLPNNALTDQVTAWMEDEFLVVFVEKDASSSPPQLPEIEENR
B5: PsHsp18.1, cytosolic class I sHSP from Pisum sativum (natural protein, UniProt P19243 1-158, looked up)
chain: MSLIPSFFSGRRSNVFDPFSLDVWDPLKDFPFSNSSPSASFPRENPAFVSTRVDWKETPEAHVFKADLPGLKKEEVKVEVEDDRVLQISGERSVEKEDKNDEWHRVERSSGKFLRRFRLPENAKMDKVKASMENGVLTVTVPKEEIKKAEVKSIEISG
B6: AtHsp18.5 with N-terminal Strep II tag (natural protein, Arabidopsis thaliana, UniProt O64564 1-162, looked up)
chain: MSMIPISNRRRLSPGDRIWEPFELMNTFLDFPSPALFLSHHFPSLSREIFPQTSSSTVNTQLNWTETPTAHVFKAYLPGVDQDEVIAFVDEEGYLQICTGDNKFMSRFKLPNNALTDQVTAWMEDEFLVVFVEKDASSSPPQLPEIEENRNVRVVEITGDDD
B7: AtHsp18.5 with C-terminal Strep II tag (natural protein, Arabidopsis thaliana, UniProt O64564 1-162, looked up)
chain: B6 chain
B8: AtHsp18.5 with Cys98 substituted by Ala (natural protein, Arabidopsis thaliana, UniProt O64564 1-162, looked up)
chain: B6 chain with C98A
B9: AtHsp18.5 tryptic fragment 48–153 (domain or fragment, Arabidopsis thaliana, UniProt O64564 48-153, looked up)
chain: EIFPQTSSSTVNTQLNWTETPTAHVFKAYLPGVDQDEVIAFVDEEGYLQICTGDNKFMSRFKLPNNALTDQVTAWMEDEFLVVFVEKDASSSPPQLPEIEENRNVR

Assays:
native MS [1] = target: the molecule itself; assay: native MS
native MS [2] = target: the molecule itself; assay: native MS; remark: listed apart in the source
firefly luciferase = firefly luciferase (firefly, UniProt P08659 1-550 = luciferase); assay: SEC
Sequence of firefly luciferase (P08659 whole entry): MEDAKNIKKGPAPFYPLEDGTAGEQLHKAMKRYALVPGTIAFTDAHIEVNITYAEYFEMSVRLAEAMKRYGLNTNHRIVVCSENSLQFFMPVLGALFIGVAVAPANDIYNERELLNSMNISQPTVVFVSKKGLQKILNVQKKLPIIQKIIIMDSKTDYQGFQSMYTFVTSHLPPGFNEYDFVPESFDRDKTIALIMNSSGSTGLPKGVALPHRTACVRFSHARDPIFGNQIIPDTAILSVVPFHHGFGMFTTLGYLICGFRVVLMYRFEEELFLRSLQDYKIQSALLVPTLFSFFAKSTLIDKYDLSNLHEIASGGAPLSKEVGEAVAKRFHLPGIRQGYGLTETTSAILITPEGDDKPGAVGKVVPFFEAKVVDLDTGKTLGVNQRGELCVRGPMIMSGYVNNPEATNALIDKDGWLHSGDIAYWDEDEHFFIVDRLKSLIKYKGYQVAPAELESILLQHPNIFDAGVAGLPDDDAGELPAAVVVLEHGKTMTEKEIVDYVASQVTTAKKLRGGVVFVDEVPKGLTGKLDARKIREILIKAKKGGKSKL

[3] = target: T1, porcine mitochondrial malate …; assay: SEC
native gel or EMSA = target: the molecule itself; assay: native gel or EMSA
[4] = target: the molecule itself; assay: native gel or EMSA + cross-linking + native MS + AUC
[5] = target: B4; assay: native MS
[6] = target: B1; assay: native MS
[7] = target: B2; assay: native MS

Binder: B1
binding result (native MS [1]): binds

Binder: B2
binding result (native MS [1]): binds

Binder: B3
binding result (native MS [2]): binds

Binder: B4
binding result (native MS [1]): binds

Binder: B5
binding result (firefly luciferase): binds | binding result [3]: binds

Binder: B6
stoichiometry N (native gel or EMSA): 2

Binder: B7
stoichiometry N (native gel or EMSA): 2

Binder: B8
stoichiometry N [4]: 2

Binder: B9
binding result [5]: binds | binding result [6]: binds | binding result [7]: binds
